# Source: patent US20070212357A1 (published 2007)
# Columns and labels:
# human NGF [1] = biological target: T1, human NGF (human, UniProt P01138 122-241); experiment: SPR (BIAcore), Fab over immobilized human NGF
# T1 construct: also called hNGF; human nerve growth factor
# rat NGF (rat) = rat NGF (rat) (UniProt P25427); experiment: cell-based or functional assay
# human NGF [2] = biological target: T1, human NGF; experiment: cell-based or functional assay
# human NGF [3] = biological target: T1, human NGF; experiment: SPR (BIAcore), Fab over CM5 chip with 100 RU of immobilized human NGF
# human NGF [4] = biological target: T1, human NGF; experiment: SPR (BIAcore), Fab over immobilized human NGF; remark: listed apart in the source
# human NGF [5] = biological target: T1, human NGF; experiment: SPR (BIAcore), human NGF on chip; KD calculated using kon 4e4 M-1s-1
# human NGF [6] = biological target: T1, human NGF; experiment: SPR (BIAcore) screening, human NGF on chip; KD calculated using kon 4e4 M-1s-1
# Method: Affinities of anti-NGF Fabs and monoclonal antibodies were determined using the BIAcore3000™ surface plasmon resonance (SPR) system (BIAcore, INC, Piscaway N.J.). CM5 chips were activated with N-ethyl-N′-(3-dimethylaminopropyl)-carbodiinide hydrochloride (EDC) and N-hydroxysuccinimide (NHS) according to the supplier's instructions. Human NGF was diluted into 10 mM sodium acetate pH 4.0 and injected over the activated chip at a concentration of 0.005 mg/mL. Using variable flow time across the individual chip channels, two ranges of antigen density were achieved: 100-200 response units (RU) for detailed kinetic studies and 500-600 RU for screening assays. The chip was blocked with ethanolamine. […] HBS-EP buffer (0.01M HEPES, pH 7.4, 0.15 NaCl, 3 mM EDTA, 0.005% Surfactant […]) was used as running buffer for all the BIAcore assays.
# T1 sequence (P01138 122-241 limits assumed): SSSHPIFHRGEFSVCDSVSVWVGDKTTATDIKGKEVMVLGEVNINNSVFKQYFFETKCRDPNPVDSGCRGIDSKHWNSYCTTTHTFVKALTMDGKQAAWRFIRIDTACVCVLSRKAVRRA
# Chain of rat NGF (rat) (P25427 122-241 limits assumed): as the sequence (P01138 122-241 limits assumed) above, with S3T, I6V, R9M, M37T, D60A, D65E, M92T, G94D, V117A, A120G counted along it
molecule,measurement,setting,value
mouse antibody 911 (Fab),Kd,human NGF [1],10 nM
same,"IC50 (1.5 pM NGF), rat NGF-dependent survival of mouse E13.5 trigeminal neurons",rat NGF (rat),34.6 pM
same,"IC50 (15 pM NGF), rat NGF-dependent survival of mouse E13.5 trigeminal neurons",rat NGF (rat),161 pM
same,"IC50 (in the presence of 1.5 pM NGF), human NGF-dependent survival of mouse E13.5 trigeminal neurons",human NGF [2],63.5 pM
same,"IC50 (in the presence of 15 pM NGF), human NGF-dependent survival of mouse E13.5 trigeminal neurons",human NGF [2],322 pM
same,koff,human NGF [3],8.4e-05 s⁻¹
same,Kd,human NGF [4],3.7 nM
same,koff,human NGF [4],9e-05 s⁻¹
same,kon,human NGF [4],22000 M⁻¹ s⁻¹
"H19-L129 (Fab, V domains shown, Combined clone with matured CDRs H1, H2, L1, L2 and grafted H3 and L3; Fab; human Ck, human IgG2a CH1, his tag; also called H19-L129 Fab; Fab H19-L129) VH: QVQLQESGPGLVKPSETLSLTCTVSGFSLIGYDLNWIRQPPGKGLEWIGIIWGDGTTDYNSAVKSRVTISKDTSKNQFSLKLSSVTAADTAVYYCARGGYYYGTSYYFDYWGQGTLVTVS VL: DIQMTQSPSSLSASVGDRVTITCRASQSISNNLNWYQQKPGKAPKLLIYYTSRFHSGVPSRFSGSGSGTDFTFTISSLQPEDIATYYCQQSKTLPYTFGQGTKLEIKR",Kd,human NGF [5],3.5 nM
"L_S91E; L_K92R; H_Y101W; H_G103A (8L2-6D5 template) (Fab, V domains shown, Human Ck, human IgG2a CH1, his tag) VH: QVQLQESGPGLVKPSETLSLTCTVSGFSLIGYDINWIRQPPGKGLEWIGMIWGDGTTDYNSALKSRVTISKDTSKNQFSLKLSSVTAADTAVYYCARGGYWYATSYYFDYWGQGTLVTVS VL: DIQMTQSPSSLSASVGDRVTITCRASQDISNHLNWYQQKPGKAPKLLIYYISRFHSGVPSRFSGSGSGTDFTFTISSLQPEDIATYYCQQERTLPYTFGQGTKLEIKR",Kd,human NGF [6],25 nM
